B1: Human Claudin-7 (Cldn7), wild type, His-tagged [human] / itself (parent)
chain: MANSGLQLLGFSMALLGWVGLVACTAIPQWQMSSYAGDNIITAQAMYKGLWMDCVTQSTGMMSCKMYDSVLALSAALQATRALMVVSLVLGFLAMFVATMGMKCTRCGGDDKVKKARIAMGGGIIFIVAGLAALVACSWYGHQIVTDFYNPLIPTNIKYEFGPAIFIGWAGSALVILGGALLSCSCPGNESKAGYRVPRSYPKSNSSKEYV

The variants in the experiment derive from B1. Description: solubilization/centrifugation assay with SDS-PAGE densitometry. The conditions noted are these: p-buffer, n = 9, read off a plot.

Take MANSGLQLLGFSMALLGWVGLVACTAIPQWQMSSYAGDNIITAQAMYKGLWMDCVTQSTGMMSCKMYDSVLALSAALQATRALMVVSLVLGFLAMFVATMGMKCTRCGGDDKVKKARIAMGGGIIFIVAGLAALVACSWYGHQIVTDAYNPLIPTNIKYEFGPAIFIGWAGSALVILGGALLSCSCPGNESKAGYRVPRSYPKSNSSKEYV [chain 1 F148A]: the screen value reads like this: (0 mM NaCl) 0.38 a.u; (300 mM NaCl) 0.87 a.u.

For MANSGLQLLGFSMALLGWVGLVACTAIPQWQMSSYAGDNIITAQAMYKGLWMDCVTQSTGMMSCKMYDSALALSAALQATRALMVVSLVLGFLAMFVATMGMKCTRCGGDDKVKKARIAMGGGIIFIVAGLAALVACSWYGHQIVTDFYNPLIPTNIKYEFGPAIFIGWAGSALVILGGALLSCSCPGNESKAGYRVPRSYPKSNSSKEYV [chain 1 V70A], the screen value runs as follows: (0 mM NaCl) 0.39 a.u; (300 mM NaCl) 0.8 a.u.

In the case of MANSGLQLLGFSMALLGWVGLVACTAIPQWQMSSYAGDNIITAQAMYKGLWMDCVTQSTGMMSCKMYDSVLALSAALQATRALMVVSLVLGFLAMFVATMGMKCTRCGGDDKVKKARIAMGGGIIFIVAGLAALVACSWYGHQIVTDFYNPLIPTNIKYEAGPAIFIGWAGSALVILGGALLSCSCPGNESKAGYRVPRSYPKSNSSKEYV [chain 1 F161A], the screen value runs as follows: (0 mM NaCl) 0.39 a.u; (300 mM NaCl) 0.85 a.u.

Take MANSGLQLLGFSMALLGWVGLVACTAIPQWQMSSYAGDNIITAQAMYKGLWMDCVTQSTGMMSCKMYDSALALSAALQATAALMVVSLVLGFLAMFVATMGMKCTRCGGDDKVKKARIAMGGGIIFIVAGLAALVACSWYGHQIVTDAANPLIPTNIKYAAGPAIFIGWAGSALVILGGALLSCSCPGNESKAGYRVPRSYPKSNSSKEYV [chain 1 V70A R81A F148A Y149A E160A F161A]: the screen value is 0.87 a.u (0 mM NaCl) and 0.86 a.u (300 mM NaCl).

For MANSGLQLLGFSMALLGWVGLVACTAIPQWQMSSYAGDNIITAQAMYKGLWMDCVTQSTGMMSCKMYDSVLALSAALQATRALMVVSLVLGFLAMFVATMGMKCTRCGGDDKVKKARIAMGGGIIFIVAGLAALVACSWYGHQIVTDFANPLIPTNIKYEFGPAIFIGWAGSALVILGGALLSCSCPGNESKAGYRVPRSYPKSNSSKEYV [chain 1 Y149A], the screen value by setting is: (0 mM NaCl) 0.67 a.u; (300 mM NaCl) 0.96 a.u.

On to MANSGLQLLGFSMALLGWVGLVACTAIPQWQMSSYAGDNIITAQAMYKGLWMDCVTQSTGMMSCKMYDSVLALSAALQATAALMVVSLVLGFLAMFVATMGMKCTRCGGDDKVKKARIAMGGGIIFIVAGLAALVACSWYGHQIVTDFYNPLIPTNIKYEFGPAIFIGWAGSALVILGGALLSCSCPGNESKAGYRVPRSYPKSNSSKEYV [chain 1 R81A], for which the screen value stood at 0.7 a.u (0 mM NaCl) and 0.91 a.u (300 mM NaCl).

On to MANSGLQLLGFSMALLGWVGLVACTAIPQWQMSSYAGDNIITAQAMYKGLWMDCVTQSTGMMSCKMYDSVLALSAALQATRALMVVSLVLGFLAMFVATMGMKCTRCGGDDKVKKARIAMGGGIIFIVAGLAALVACSWYGHQIVTDFYNPLIPTNIKYAFGPAIFIGWAGSALVILGGALLSCSCPGNESKAGYRVPRSYPKSNSSKEYV [chain 1 E160A], for which the screen value reads like this: (0 mM NaCl) 0.38 a.u; (300 mM NaCl) 0.87 a.u.

For the variant MANSGLQLLGFSMALLGWVGLVACTAIPQWQMSSYAGDNIITAQAMYKGLWMDCVTQSTGMMSCKMYDSVLALSAALQATAALMVVSLVLGFLAMFVATMGMKCTRCGGDDKVKKARIAMGGGIIFIVAGLAALVACSWYGHQIVTDFANPLIPTNIKYEFGPAIFIGWAGSALVILGGALLSCSCPGNESKAGYRVPRSYPKSNSSKEYV [chain 1 R81A Y149A], the screen value worked out at 0.7 a.u (0 mM NaCl) and 0.82 a.u (300 mM NaCl).

For the origin of these results see publication PMC9271825.
